Reference: the supplement of paper PMC10567573
± gives the standard deviation.

Experiment: protein stability index of a GFP-peptide fusion (GPS, HEK-293T) (PSI 1-6); higher = more stable
Settings: c terminus: a fixed tail appended
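Note: 24-mer peptide tiles fused after GFP, lentivirally expressed, FACS-sorted into six equal bins by GFP/DsRed ratio, decoded by Illumina sequencing, PSI is the read-weighted mean bin number.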

Row | Sequence | protein stability index (treatment: DMSO) | protein stability index (treatment: MLN4924 1 uM, 8 h)
1 | WEEWQFLSPAQKDLYRDVMLENYS [ZNF649] | 3.48 ± 0.35 | 3.6 ± 0.2
2 | WEKVGSGGFGQVYKVRHVHWKTWL [RIPK4] |  | 2.24 ± 0.21
3 | LEEKCQQPASELLQDVRVNQSRCE [TRIM15] | 5.58 ± 0.22 | 5.53 ± 0.5
4 | LGERRAEPHSLLHLSRLCVRHNLG [SPSB2] | 3.35 ± 0.22 | 3.3 ± 0.23
5 | TFIPLEPLPQIPNLPFWVKEKANS [SPATS1] | 2.81 ± 0.19 | 3.04 ± 0.15
6 | GGLLTGNEKITMQNLNDRLASYLE [KRT13] | 3.19 ± 0.15 | 3.24 ± 0.13
7 | QISMELAKVNYVKNNICFMSHHQE [SLC2A12] | 2.6 ± 0.16 | 2.41 ± 0.27
8 | EWPEYFMAVAFLSAQRSKDPNSQV [DCTD] | 2.35 ± 0.26 | 2.06 ± 0.48
9 | MVEADHPGKLFIGGLNRETNEKML [RBMY1A1] | 3.91 ± 0.23 | 3.92 ± 0.093
10 | KDGKAFHPTYEEKLKLVALHKQVL [ACBD3] | 2.68 ± 0.33 | 2.65 ± 0.11
11 | VPIGASIYVIGDLDTGTNYDYVRE [GAN] | 2.29 ± 0.45 | 2.21 ± 0.31
12 | TVEKDKVTGETRVLSSTTLLPRQP [PALM] | 4.86 ± 0.23 | 4.87 ± 0.084
13 | QQFQPAGTDQVCVLEWGAEGVAGK [FCHSD1] | 4.46 ± 0.24 | 4.64 ± 0.23
14 | RCFWLGMEGLETAEGSNSESSDDD [SDE2] | 5.22 ± 0.42 | 5.09 ± 0.3
15 | LAEIRSDLERQNQEYQVLLDVRAR [KRT33B] | 3.84 ± 0.25 | 4.02 ± 0.32
16 | GRLAMDEIFQKPFQTLMFLVRDWS [ATL3] | 2.25 ± 0.55 | 2.09 ± 0.21
17 | FRQFGYQDSPGPREAVSQLRELCR [ZNF24] | 3.37 ± 0.17 | 3.38 ± 0.15
18 | TLTREQTERLSHQITSRVVSAATQ [RTN2] | 3.68 ± 0.19 | 3.75 ± 0.13
19 | RIKEVEHMTRHLEESEKAMQERVQ [LRRC45] | 5 ± 0.22 | 4.99 ± 0.21
20 | IHPKNPHAPTIHFNYRYFEVEEAD [CPOX] | 3.75 ± 0.18 | 3.88 ± 0.17
21 | FIAVTSYQNHKITQLKIENNPFAK [TBX5] | 2.12 ± 0.28 | 2.27 ± 0.53
22 | YEDGTELTEDYFPSVPDNAELVLL [DFFB] | 3.52 ± 0.36 | 3.7 ± 0.23
23 | YHYGVASCEACKAFFKRTIQGNIE [ESRRG] | 2.43 ± 0.19 | 2.65 ± 0.58

Row | Sequence | protein stability index (treatment: DMSO) | protein stability index (treatment: MLN4924 1 uM, 8 h)
24 | SNLSYHLEKNHPEEFCEFVKSNTE [ZBED1] | 4.72 ± 0.18 | 4.69 ± 0.29
25 | AFEESKIDEHHFVAVALRKPDGSR [AASDHPPT] | 4.01 ± 0.52 | 4.2 ± 0.53
26 | SSCVKILLDHNANIDIQNGFLLRY [ASB7] | 2.47 ± 0.43 | 2.5 ± 0.24
27 | QEMVVSSLVIGALLASLTGGVLID [SLC2A12] | 3.61 ± 0.39 | 3.45 ± 0.73
28 | LSPALDLQAESPPVDPDSQADTVH [DNAAF3] | 5.48 ± 0.41 | 5.46 ± 0.21
29 | LTEASAHSHPPEIKDQGGAGEGLV [MAP2] | 5.57 ± 0.15 | 5.56 ± 0.2
30 | PERSDLTLYLIVALATVSLLSLVT [PCDHGC5] | 2.02 ± 0.44 | 2.27 ± 0.56
31 | QVKLYDIEQQQIRNALENIRKEMK [CRYL1] | 3.14 ± 0.65 | 3.47 ± 0.29
32 | AEMLGSVVGNWQYFFPVIFSKASD [MAGEA6] | 2.37 ± 0.31 | 2.31 ± 0.31
33 | PSTICFGQGAARGFKSNKKKTKQC [ZNF511] | 4.14 ± 0.83 | 3.84 ± 0.068
34 | VTSYCRSATLVGFTVGSVLGQILV [SLC19A2] | 3.5 ± 0.39 | 2.84 ± 0.6
35 | ERETEATRGRGGLLRDHIPRGKEE [MOG] | 5.38 ± 0.38 | 5.18 ± 0.41
36 | DSVLERWVNDPQRMDKRTLALLVL [GOLPH3L] | 2.21 ± 0.28 | 2.31 ± 0.28
37 | LVITDFFGHLINGAIAVFVYASDK [PTGFR] | 3.39 ± 0.23 | 3.56 ± 0.49
38 | PLFSNWWIQVTSLRIFVWLLLLYF [PHTF1] | 2.21 ± 0.22 | 2.5 ± 0.49
39 | EDGKRCVAVDYCASENHGCEHECV [MATN2] | 4.92 ± 0.14 | 4.88 ± 0.7
40 | QENYLEYRQVPGSDPARYEFLWGP [MAGEA10] | 3.28 ± 0.27 | 3.54 ± 0.32
41 | YRQKKRAEQEALTGECKELEKKNE [ATF4] | 5.47 ± 0.24 | 5.59 ± 0.19
42 | QNINAPAPATTSSWEVVRNPLIAS [C22orf31] | 3.65 ± 0.32 | 3.7 ± 0.16
43 | NYLVRLSFHNLKFDCSTANKIFLR [ZNF277] | 2.46 ± 0.4 | 2.55 ± 0.25
44 | HCIQQILEAVLHCHQMGVVHRDLK [CAMK2B] | 2.6 ± 0.7 | 2.95 ± 0.37
45 | CVNGDVDKPSEPASEEGSESEGSE [SMG5] | 5.58 ± 0.23 | 5.51 ± 0.14
